From the supplement of paper PMC9942255

Test system: Bacillus subtilis DB104 (SP-AmyQ fusion secretion)
Test: AmyQ secretion efficiency, weighted average sort bin (1 = best secretion, 10 = worst) (bin number (weighted average, 1-10)); higher = lower secretion efficiency
In short: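 The secretion score was taken as the read-frequency-weighted mean bin number, normalised to beads per bin, with low-abundance sequences excluded. Bins came from large-particle flow cytometry sorting of occupied alginate beads (~65 nL, about 0.3 cells each, with fluorescein-starch) into 10 equally populated groups by green/red fluorescence ratio after about 13 h at room temperature and nile red staining. The cells were a B. subtilis DB104 library with mature AmyQ fused to designed signal peptides, integrated at amyE, and each bin's amplicons were Illumina-sequenced.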

Sequence	AmyQ secretion efficiency
MKVCQKSIVRFLVSLIIGTFVISVPFMANARKR	3.31
MKVCQKSIVRFLVSLIIGTFVISVPFMANFQSD	5.64
MKVCQKSIVRFLVSLIIGTFVITSVPFMANAQSD	3
MKVCQKSIVRFRKRRIIGTFVISVPFMANAQSD	7.62
MKVCQKSIVRSGVSLIIGTFVISVPFMANAQSD	2.46
MKVCQKSIVRSQRSLIIGTFVISVPFMANAQSD	5.65
MKVCQKSIVRSTTRQRIGTFVISVPFMANAQSD	7.4
MKVCQKSIVRTNFLVSLIIGTFVISVPFMANAQSD	2.34
MKVKKSALLLLLFAFEPSASGKKL	7.2
MKVKRKRLLLLLFAFEPSASGKKL	7.56
MKVKRRKRKLLLFAFEPSASGKKL	6.97
MKVLLSALLLLFEPSASGKKL	7.48
MKVLLSALLLLLFAEASGKKL	6.56
MKVLLSALLLLLFAEDEEEEASGKKL	5.86
MKVLLSALLLLLFAEEDSASGKKL	6.1
MKVLLSALLLLLFAFAASASGKKL	6.06
MKVLLSALLLLLFAFEPSASAKKL	1.92
MKVLLSALLLLLFAFEPSASCKKL	4.65
MKVLLSALLLLLFAFEPSASDKKL	6.18
MKVLLSALLLLLFAFEPSASEKKL	5.89
MKVLLSALLLLLFAFEPSASGAKR	4.45
MKVLLSALLLLLFAFEPSASGAPR	3.63
MKVLLSALLLLLFAFEPSASGASL	2.94
MKVLLSALLLLLFAFEPSASKKKL	6.2
MKVLLSALLLLLFAFEPSASMKKL	6.8
MKVLLSALLLLLFAFEPSASPKKL	2.66

Sequence	AmyQ secretion efficiency
MKVLLSALLLLLFAFEPSASTKKL	5.63
MKVLLSALLLLLFAFEPSASVKKL	6.34
MKVLLSALLLLLFAFEPSASWKKL	5.1
MKVLLSALLLLLFAFEPSCSGKKL	5.53
MKVLLSALLLLLFAFEPSDSGKKL	6.13
MKVLLSALLLLLFAFEPSESGKKL	6.5
MKVLLSALLLLLFAFEPSFASGKKL	5.58
MKVLLSALLLLLFAFEPSFSGKKL	8.07
MKVLLSALLLLLFAFEPSGSGKKL	5.88
MKVLLSALLLLLFAFEPSHSGKKL	6.88
MKVLLSALLLLLFAFEPSISGKKL	7.18
MKVLLSALLLLLFAFEPSKSGKKL	6.03
MKVLLSALLLLLFAFEPSLSGKKL	6.45
MKVLLSALLLLLFAFEPSNSGKKL	6.02
MKVLLSALLLLLFAFEPSPSGKKL	6.9
MKVLLSALLLLLFAFEPSRSGKKL	6.31
MKVLLSALLLLLFAFEPSSSGKKL	6.37
MKVLLSALLLLLFAFEPSTVVTAATAVASGKKL	2.96
MKVLLSALLLLLFAFEPSVSGKKL	6.17
MKVLLSALLLLLFAFEPSYSGKKL	5.87
MKVLLSALLLLLFAFFEPSASGKKL	6.51
MKVLLSALLLLLFAFFTSFTLTLFEPSASGKKL	7.36
MKVLLSALLLLLFAFGPSASGKKL	5.45
MKVLLSALLLLLFAFSPSASGKKL	4.69
MKVLLSALLLLLFALVALSFEPSASGKKL	3.74
MKVLLSALLLLLFARKKKKRASGKKL	6.15

Sequence	AmyQ secretion efficiency
MKVLLSALLLLLFARRKSASGKKL	7.09
MKVPKTMLKKRKRKLLLSLTATSVSAHYV	5.33
MKVPKTMLKRTAAGLLLSLTATSVSAHYV	4.94
MKVPKTMLLSTAAGLLLSLDEDSVSAHYV	6.39
MKVPKTMLLSTAAGLLLSLDPTSVSAHYV	3.57
MKVPKTMLLSTAAGLLLSLKKRSVSAHYV	6.92
MKVPKTMLLSTAAGLLLSLRRKKRKVSAHYV	6.33
MKVPKTMLLSTAAGLLLSLTATSASAHYV	5.6
MKVPKTMLLSTAAGLLLSLTATSCSAHYV	4.58
MKVPKTMLLSTAAGLLLSLTATSDSAHYV	6.94
MKVPKTMLLSTAAGLLLSLTATSESAHYV	6.28
MKVPKTMLLSTAAGLLLSLTATSFSAHYV	6.3
MKVPKTMLLSTAAGLLLSLTATSISAHYV	6.77
MKVPKTMLLSTAAGLLLSLTATSKSAHYV	6.37
MKVPKTMLLSTAAGLLLSLTATSPPFPPVSAHYV	4.04
MKVPKTMLLSTAAGLLLSLTATSRSAHYV	6.25
MKVPKTMLLSTAAGLLLSLTATSTSAHYV	4.19
MKVPKTMLLSTAAGLLLSLTATSVSAEEE	2.6
MKVPKTMLLSTAAGLLLSLTATSVSAHRK	4.68
MKVPKTMLLSTAAGLLLSLTATSVSAHYK	5.14
MKVPKTMLLSTAAGLLLSLTATSVSAKRK	5.92
MKVPKTMLLSTAAGLLLSLTATSVSCHYV	5.45
MKVPKTMLLSTAAGLLLSLTATSVSIHYV	5.12
MKVPKTMLLSTAAGLLLSLTATSVSSHYV	7.63
MKVPKTMLLSTAAGLLLSLTATSVSWHYV	4.99
MKVPKTMLLSTAAGLLLSLTATSWSAHYV	6.27

Sequence	AmyQ secretion efficiency
MKVPKTMLLSTAAGLLLSLTVSAHYV	5.02
MKVPKTMLLSTAAGLLTATSVSAHYV	6.58
MKVPKTMNFSFTLLSTAAGLLLSLTATSVSAHYV	5.47
MKVPKTMYQRRQAGLLLSLTATSVSAHYV	6.61
MKWCSICCAAVLLAGGAAQAEAV	3.57
MKWMCKKCCAAVLLAGGAAQAEAV	5.26
MKWMCKKCCKKVLLAGGAAQAEAV	7.14
MKWMCKRCCRRKRLAGGAAQAEAV	7.06
MKWMCMICCAAVLLAMIGAAQAEAV	3.44
MKWMCSICCAAVLGAAQAEAV	4.75
MKWMCSICCAAVLLAGAAAAQAEAV	4.13
MKWMCSICCAAVLLAGEDEDEDAQAEAV	8.04
MKWMCSICCAAVLLAGESAQAEAV	3.16
MKWMCSICCAAVLLAGGAAASSSVVAQAEAV	3.55
MKWMCSICCAAVLLAGGAAQAAAD	4.17
MKWMCSICCAAVLLAGGAAQADDE	6.18
MKWMCSICCAAVLLAGGAAQARRK	6.49
MKWMCSICCAAVLLAGGAAQCEAV	3.23
MKWMCSICCAAVLLAGGAAQGEAV	3.2
MKWMCSICCAAVLLAGGAAQHEAV	8.16
MKWMCSICCAAVLLAGGAAQIEAV	2.05
MKWMCSICCAAVLLAGGAAQLEAV	3.67
MKWMCSICCAAVLLAGGAAQMEAV	3.22
